Assay [1] has as its system patient-derived MM cells. As to the kind of experiment: Cytotoxicity assay (Trypan Blue dye exclusion), patient-derived primary MM cells. Conditions: newly isolated MM cells, in the presence of a secondary antibody. It counts as cell-based, human. As for the experimental part:
[…] Cell viabilities were determined by WST-8 assays or Trypan Blue exclusion assays. […] (B) The morphological observations of myeloma cells after 2D7-DB treatment are shown. Purified MM cells derived from patient No. 18 were cultured for 24 hours in the presence (1 μg/mL) or absence of 2D7-DB. Next, cells were fixed on glass slides and stained with light Giemsa (original magnification,×1000). (C) A graph indicating the cytotoxic activity of 2D7-DB on the patients' MM cells is shown. CD138-positive MM cells were purified from six patients, and the cells were cultured for 24 hours with 2D7-DB (0.1 or 1μg/mL). Cell viabilities were determined by Trypan Blue exclusion assays.
Patients' MM cells were prepared as follows. First clinical disease stage classification and diagnosis of MM patients were performed according to the Durie and Salmon classification (Durie, B. CT, and S. E. Salmon. 1975. “A clinical staging system for multiple myeloma. Correlation of measured myeloma cell mass with presenting clinical features, response to treatment, and survival,” Cancer, 36:842-854). […]
Cytotoxicity assays were performed as follows. […] Cell viabilities were measured by WST-8 assays (Kishida Chemical, Osaka, Japan) for the cell lines, and by Trypan Blue dye exclusion assays for patient-derived primary MM cells. […]

Assay [2] deals with HLA-A on CD34+ cells. As to the kind of experiment: Two-color flow cytometry of a peripheral blood stem cell collection. Type of assay: binding, human. The following applies: CD34+ cells in a peripheral blood stem cell collection, n=3. A general note: Flow cytometry measures light scatter and fluorescence of single cells or particles in a stream.
The test system of assay [3] is HLA-A on lymphocytes. As to the kind of experiment: HLA-A expression in BMMCs of MM patients (flow cytometry, FITC-labeled 2D7 mAb). Type of assay: binding, human. The following applies: BM samples of 22 MM patients, mean±SD. As for the experimental part: (§1) After cell gating (R1: CD38-positive MM cells; R2: myeloid cells; and R3: lymphocytes), each cell population was evaluated for HLA-A expression. (B) BMMCs derived from 22 MM patients were analyzed for HLA-A expression.
(§2) Patients' MM cells were prepared as follows. First clinical disease stage classification and diagnosis of MM patients were performed according to the Durie and Salmon classification (Durie, B. CT, and S. E. Salmon. 1975. “A clinical staging system for multiple myeloma. Correlation of measured myeloma cell mass with presenting clinical features, response to treatment, and survival,” Cancer, 36:842-854). Bone marrow samples were collected from patients after obtaining informed consent upon approval by the ethics committee of The University of Tokushima. The bone marrow mononuclear cells (BMMCs) were separated by Ficoll-Hypaque (density of 1.077) centrifugation. Patient-derived MM cells were further purified from BMMCs using CD138 microbeads (Miltenyi Biotec, Auburn, Calif.).
(§3) Cell surface expression analysis of HLA class I by flow cytometry was performed as follows using FITC-labeled 2D7 mAb or FITC-labeled anti-HLA-ABC common region mAb (Chemicon, San Diego, Calif.). The cells (5×10^5 cells) were washed twice with PBS, and then incubated on ice for 40 minutes with FITC-labeled 2D7 mAb or FITC-labeled anti-HLA-ABC common region mAb. MM patient-derived BMMCs were incubated on ice for 15 minutes with 2% γ globulin diluted in PBS, and stained with FITC-labeled 2D7 mAb and PE-labeled anti-CD38 mAb (BD Bioscience, San Jose, Calif.) for myeloma cell gating. Next, the cells were washed twice with PBS, and analyzed using an EPICS XL flow cytometer (Beckman Coulter, Japan). […] HLA class I expression levels were evaluated as GeoMFI using the CellQuest software (BID Biosciences).
(§4) Next, HLA-A expression in BMMCs of MM patients was examined. […] After gating the cells according to their side-scattered light profile and CD38 expression, each of the cell populations comprising myeloma cells, myeloid cells, and lymphocytes was analyzed for HLA-A expression. […]

Assay [4] has as its system HLA-A on myeloma cells. Described as above. Type of assay: binding, human. Conditions: BM samples of 22 MM patients, mean±SD. The method, then: as §1, §2, §3, §4
For assay [5], the system named is HLA-A on myeloid cells. The assay is described as above. Conditions: BM samples of 22 MM patients, mean±SD. It counts as binding, human. The method, then: as §1, §2, §3, §4
The subject of assay [6] is IM-9 cells. As to the kind of experiment: Cytotoxicity assay (WST-8 cell viability). Type of assay: cell-based, human. The following applies: IM-9, 24 hours after cross-linking with the secondary antibody. As for the experimental part: In other experiments, cells were cultured with 2D7-DB in the absence of the goat anti-mouse IgG antibody. Cell viabilities were determined by WST-8 assays or Trypan Blue exclusion assays. […] (B) The morphological observations of myeloma cells after 2D7-DB treatment are shown. Purified MM cells derived from patient No. 18 were cultured for 24 hours in the presence (1 μg/mL) or absence of 2D7-DB. Next, cells were fixed on glass slides and stained with light Giemsa (original magnification,×1000). (C) A graph indicating the cytotoxic activity of 2D7-DB on the patients' MM cells is shown. CD138-positive MM cells were purified from six patients, and the cells were cultured for 24 hours with 2D7-DB (0.1 or 1μg/mL). Cell viabilities were determined by Trypan Blue exclusion assays.
Cytotoxicity assays were performed as follows. […] Cell viabilities were measured by WST-8 assays (Kishida Chemical, Osaka, Japan) for the cell lines, and by Trypan Blue dye exclusion assays for patient-derived primary MM cells. Apoptosis induction was assessed by flow cytometric analysis with Annexin V and PI staining (MEBCYTO apoptosis kit MBL, Nagoya, Japan).
Next, cytotoxic effects of single chain Fv-type 2D7 mAb (2D7-DB) on MM cell lines and patient-derived MM cells were assessed. […]
In general terms: Tetrazolium dyes change colour on reduction, which living cells bring about.

B1: 2D7: monoclonal antibody obtained by immunizing human myeloma cells; recognizes HLA class I (HLA-A) (antibody, V domains shown)
VH: QVQLQQSGPELVKPGASVKMSCKASGYTFTDYFIHWVKQRPGQGLEWIGWIFPGDDTTDYNEKFRGKTTLTADKSSSTAYILLSSLTSEDSAMYFCVRSDDFDYWGQGTTLTVSS
VL: QIVLTQSPAIMSASPGEKVTITCSASSSVSYMHWFQQKPGTFPKLWIYSTSNLASGVPTRFSGSGSGTSYSLTISRMEAEDAATYYCQQRTSYPPTFGSGTKLEIK
Turning to B1, in assay [1], the cell viability result is “inhibited”. For the same molecule, in assay [2], the “HLA-A expression, GeoMFI” value is 109±16. Further, the “HLA expression level, geometric mean fluorescence intensity (GeoMFI)” value in assay [3] worked out at 91±44; in assay [4], 1309±1130; in assay [5], 201±209. In addition, the “inhibition of cell viability” value in assay [6] was “more efficiently than W6/32, B9.12.1, and JOAN-1”.

For the origin of these results see patent US20090022687A1, “Novel Pharmaceuticals That Use Anti-HLA Antibodies” (Chugai Seiyaku Kabushiki Kaisha, priority 2005, published 2009).
